US20190202925A1 (OPI VI IP HOLDCO, published 2019)
Numbering of substitutions follows the chain as printed. One block for each binder: values may come before it.

Key:
[1] = biological target: T1, cynomolgus TNFR2 on cells (cynomolgus); assay: flow cytometry on cynomolgus PBMC, antibody at 10 ug/mL, anti-human Fc-PE secondary
T1 construct: whole, on cells; also called cynomolgus TNFR2 on CD4+ and CD8+ T cells
Protocol: Cynomolgus peripheral blood mononuclear cells (PBMCs) from two independent donors were isolated by diluting whole blood (SNBL USA) 1:1 in PBS (Lonza), layering over Ficoll-Paque Plus (GE Healthcare), and centrifuging for 35 minutes at 400×g. The PBMC fraction was removed, washed 3 times in 2% FBS PBS and counted. 0.3×10⁶ PBMC were resuspended in Fixable Viability Stain 575V (BD) diluted 1:1000 in PBS and incubated for 10 minutes. PBMC were then washed twice in PBS to remove residual viability stain, resuspended in Horizon Brilliant Stain Buffer (BD) with 10 uL per test of human Fc receptor binding inhibitor (eBioscience), and incubated on ice for 20 minutes to block Fc receptors. […] PBMC were incubated 20 minutes on ice and then washed three times with 2% FBS PBS. To visualize TNFR2 chimeric antibody binding, PBMC were resuspended in goat anti-human Fc-PE F(ab′)₂ secondary reagent (Jackson ImmunoResearch) diluted 1:200 in 2% FBS PBS and incubated on ice for 20 minutes. Cells were then washed three times in 2% FBS PBS and resuspended in 200 uL 2% FBS PBS for flow cytometry analysis using a BD FACS Celesta instrument and FACS Diva software. T cells were analyzed for chimeric TNFR2 binding by gating on viable cells defined as lymphocytes using forward and side scatter and as T cells by anti-CD3 staining. CD4⁺ and CD8⁺ subsets were identified using commercial specific antibody conjugates.

[2] = biological target: T2, monomeric cynomolgus TNFR2 extracellular domain (cynomolgus monkey, UniProt A0A2K5VET2 132-366); assay: BLI (Octet Red 96), antibody captured on Fc biosensor, monomeric TNFR2 ECD in solution, 1:1 model
T2 construct: extracellular domain; Analyte in the Octet experiments; also called cynomolgus TNFR2 ECD; Cyno TNFR2
T2 sequence: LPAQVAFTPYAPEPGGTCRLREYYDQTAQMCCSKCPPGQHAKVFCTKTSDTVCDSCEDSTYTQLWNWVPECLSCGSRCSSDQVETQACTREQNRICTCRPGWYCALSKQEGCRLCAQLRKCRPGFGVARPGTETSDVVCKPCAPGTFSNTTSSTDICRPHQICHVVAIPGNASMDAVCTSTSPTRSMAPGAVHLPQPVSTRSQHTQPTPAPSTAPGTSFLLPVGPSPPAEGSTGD
Protocol: (§1) Analysis of binding to the human and cynomolgus TNFR2 ECD was performed using an Octet Red 96 Instrument™ (ForteBio). […] The experiments were performed using five steps: (1) baseline acquisition (60 s); (2) antibody loading on to anti-human or anti-mouse Fc biosensors (120 s); (3) second baseline acquisition (60 s); (4) association of interacting monomeric human or cynomolgus TNFR2 ECD protein for kₒₙ measurement (120 s); and (5) dissociation of interacting monomeric human or cynomolgus TNFR2 ECD for koff measurement (240-3600 s).
(§2) The interacting monomeric human or cynomolgus ECD was used at 5-6 concentrations of a 3-fold concentration series. The data were analyzed using Octet Data Analysis Software 9.0™ (ForteBio) and fit to the 1:1 binding model. The equilibrium dissociation constants (Kd) were calculated by the ratio of […].

[3] = biological target: T3, monomeric human TNFR2 extracellular domain (human, UniProt P20333 23-257); assay: as above
T3 construct: extracellular domain; Analyte in the Octet experiments; also called human TNFR2 ECD
T3 sequence (looked up): T2 sequence with G16S, P36S, Q117P, H164N, A210E, G216S, V223M
Protocol: as §1, §2

[4] = biological target: T4, soluble human TNFR2 (human, UniProt P20333 23-257); assay: competition ELISA: plate-bound soluble human TNFR2, competitor biotinylated TNFα; IC50 relative to unlabelled TNFα = 1.00
T4 construct: also called soluble TNFR2
T4 sequence (looked up): T2 sequence with G16S, P36S, Q117P, H164N, A210E, G216S, V223M
Protocol: (§3) Soluble human TNFR2 (Sino Biological, 10417-H08H) or cynomolgus TNFR2 (Sino Biological, 90102-C08H) was coated on Nunc-Immuno™ plates at 0.1 μg/ml, 0.5 ug/ml, 1 μg/ml, and 5 μg/ml. […] Plates were developed using TMB and stopped with 3 M HCl.

[5] = biological target: T4, soluble human TNFR2; assay: competition ELISA, plate-bound soluble human TNFR2, biotinylated TNFα as competitor
Protocol: as §3
IC₅₀ values are reported in nM.

[6] = biological target: T4, soluble human TNFR2; assay: competition ELISA: plate-bound soluble human TNFR2, competitor biotinylated TNFα, streptavidin-HRP, A450
Protocol: as §3

[7] = biological target: T5, human TNFR2 on cells (human, UniProt P20333 23-461); assay: flow cytometry on human PBMC, antibody at 10 ug/mL, anti-human Fc-PE secondary
T5 construct: whole, on cells; also called TNFR2 on Jurkat clone H6; human TNFR2 on CD4+ and CD8+ T cells
T5 sequence (looked up): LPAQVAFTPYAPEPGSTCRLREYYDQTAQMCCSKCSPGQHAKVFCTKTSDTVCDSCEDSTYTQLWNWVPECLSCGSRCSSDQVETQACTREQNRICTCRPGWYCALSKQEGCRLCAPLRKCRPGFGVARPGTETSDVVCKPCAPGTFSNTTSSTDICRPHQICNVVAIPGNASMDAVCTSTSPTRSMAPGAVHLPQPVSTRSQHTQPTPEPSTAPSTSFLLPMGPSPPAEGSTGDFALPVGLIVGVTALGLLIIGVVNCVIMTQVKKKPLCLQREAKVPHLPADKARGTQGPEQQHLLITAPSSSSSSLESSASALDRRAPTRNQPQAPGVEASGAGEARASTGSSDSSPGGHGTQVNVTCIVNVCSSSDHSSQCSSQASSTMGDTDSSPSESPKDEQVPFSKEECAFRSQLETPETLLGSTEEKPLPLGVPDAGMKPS
Protocol: The following day 0.3×10⁶ PBMC were counted and washed with PBS (Lonza). PBMCs were resuspended in Fixable Viability Stain 575V (BD) diluted 1:1,000 in PBS and incubated for 10 minutes. PBMCs were then washed twice in PBS to remove residual viability stain. PBMCs were then resuspended in Horizon Brilliant Stain Buffer (BD) with 10 uL per test of human Fc receptor binding inhibitor (eBioscience) and incubated on ice for 20 minutes to block Fc receptors. […] PBMCs were incubated 20 minutes on ice and then washed three times with 2% FBS PBS. To visualize TNFR chimeric antibody binding, PBMCs were resuspended in goat anti-human Fc-PE F(ab′)₂ secondary reagent (Jackson ImmunoResearch) diluted 1:200 in 2% FBS PBS and incubated on ice for 20 minutes. Cells were then washed three times in 2% FBS PBS and resuspended in 200 uL 2% FBS PBS for flow cytometry analysis using a BD FACS Celesta instrument and FACS Diva software. T cells were analyzed for chimeric TNFR2 binding by gating on viable cells defined as lymphocytes using forward and side scatter and as T cells by anti-CD3 staining. CD4⁺ and CD8⁺ subsets were identified by commercially available specific antibody conjugates.

[8] = biological target: T3, monomeric human TNFR2 extracellular …; assay: BLI (Octet Red 96), Human TNFR2 Kd (1-1)
[9] = biological target: T3, monomeric human TNFR2 extracellular …; assay: BLI (Octet Red 96), CHO supernatant antibody on anti-human Fc biosensor, 100 nM monomeric human TNFR2 ECD, 1:1 model
Protocol: Analysis of binding to human TNFR2 ECD was performed using Octet Red 96 instrument (ForteBio). The Octet systems use propriety BLI to analyze biomolecular interaction. CHO supernatants of hSBT-002a, hSBT-002b, hSBT-002c, hSBT-002d, hSBT-002e, and chSBT-002n were diluted to 20 ug/ml based on titers with expression media and immobilized using anti-human Fc biosensors. These were incubated with 100 nM monomeric human TNFR2 in PBS. The experiments comprised of 5 steps: (1) baseline acquisition (60 s); (2) antibodies loading onto anti-human Fc biosensor (120 s); (3) second baseline acquisition (60 s); (4) association of interacting monomeric human TNFR2 ECD protein for kₒₙ measurement (120 s); (5) Dissociation of interacting monomeric human TNFR2 ECD for koff measurement (300 s). Data were analyzed using Octet Data Analysis Software 9.0 (ForteBio) and fitted to the 1:1 binding model. Equilibrium dissociation constants (Kd) were calculated by the ratio of […].

% CD4^+ ab^+ Donor 1 [1]: 0.7%
% CD4^+ ab^+ Donor 2 [1]: 1.2%
% CD8^+ ab^+ Donor 1 [1]: 0.6%
% CD8^+ ab^+ Donor 2 [1]: 2.1%
Kd [2]: 470 nM
Kd [3]: 0.25 nM
Relative IC50 [4]: 5.79 nM
Average Relative IC50 [5]: 5.33 nM
IC50 [6]: 14.4 nM
% CD4^+ ab^+ Donor 1 [7]: 44.4%
% CD4^+ ab^+ Donor 2 [7]: 35%
% CD8^+ ab^+ Donor 1 [7]: 23.8%
% CD8^+ ab^+ Donor 2 [7]: 17.7%
B1: chimeric SBT-003 (antibody, V domains shown)
VH: QIQLVQSGPELKKPGETVKISCKASGYTFTDYSMHWVKQAPGKGLKWMGWINTETGEPTYADDFKGRFAFSSETSTSTAYLQINNLKNDDTTTYFCATYYGSSYVPDYWGQGTSLTVSS
VL: DIVMTQSHKFMSTSVGDRVSITCKASQNVGTAVAWYQHKPGQSPKLLIYWTSSRHTGVPDRFTGSGSGTEFTLTISNVQSEDLADYFCHQYSDYPYTFGGGTKLEIK
notes: also called chSBT-003

Kd [8]: 1 nM
B2: chimeric SBT-003 Fc null (antibody, V domains shown)
VH: B1 VH
VL: B1 VL
notes: also called chSBT-003n

Kd [9]: 2.44 nM
koff [9]: 0.000424 s⁻¹
B3: hSBT-002b (antibody, V domains shown)
VH: QVTLKESGPALVKPTQTLTLTCTFSGFSLSTSGMGVGWIRQPPGKALEWLAHIWWDDDKFYNPSLKSQLTISKDTSKNQVVLTMTNMDPVDTATYYCARITGTRYFDYWGQGTTVTVSS
VL: DVQMTQSPSSLSASVGDRVTITCKASQDINKFIAWYQQKPGKAPKLLIHYTSTLQPGIPSRFSGSGSGTDFTFTISSLQPEDIATYYCLQYGNLWTFGGGTKVEIK
notes: Humanized SBT-002; VH fused to human IgG1 Fc null, VL to human Ck; Tested as CHO supernatant

Kd [9]: 2.27 nM
koff [9]: 0.000446 s⁻¹
B4: hSBT-002c (antibody, V domains shown)
VH: B3 VH with Q68R, I100L
VL: B3 VL
notes: as for B3

Kd [9]: 1.73 nM
koff [9]: 0.000301 s⁻¹
B5: hSBT-002d (antibody, V domains shown)
VH: B3 VH
VL: B3 VL with T69R, F71Y
notes: as for B3

Kd [9]: 1.54 nM
koff [9]: 0.000268 s⁻¹
B6: hSBT-002e (antibody, V domains shown)
VH: B3 VH with Q68R, I100L
VL: B3 VL with T69R, F71Y
notes: as for B3

Kd [9]: 4.89 nM
koff [9]: 0.000722 s⁻¹
B7: hSBT-002a (antibody, V domains shown)
VH: B3 VH with Q68R
VL: B3 VL with V2I, H49Y, I58V
notes: as for B3

Kd [2]: 58.3 nM
Kd [3]: 1.8 nM
B8: chimeric SBT-001 (antibody, V domains shown)
VH: EVQLQQSGAELVKPGASVKISCKASGYTFTDYNMDWVKQSHGKSLEWIGDINPNYESTSYNQKFKGKATLTVDKSSSTAYMEVRSLTSEDTAVFYCARDKGWYFDVWGAGTTVTVSS
VL: ENVLTQSPAIMSASLGEKVTMSCRASSSVKNMYWYQQKSDASPKLWIYYTSNLAPGVPARFSGSGSGNSYSLTISSMEGEDAATYYCQQFTSSPYTFGGGTKLELK
notes: also called chSBT-001

Kd [8]: 2.5 nM
Kd [9]: 1.92 nM
koff [9]: 0.000361 s⁻¹
B9: chimeric SBT-002 Fc null (antibody, V domains shown)
VH: QVTLKESGPGILQPSQTLSLTCSFSGFSLSTSGMGVGWIRQPSGKGLEWLAHIWWDDDKFYNPSLKSQLTISKDTSRNQVFLKLTSVVTADTATYYCARLTGTRYFDYWGQGTTLTVSS
VL: DVQMTQSPSSLSASLGGKVTITCKASQDINKFIAWYQHKPGKGPRLLIHYTSTLQPGIPSKFSGSGSGRDYSFSISNLEPEDIATYYCLQYGNLWTFGGGTKLEIT
notes: also called chSBT-002n
